This data set deals with the molecule itself. The experiment in a line: immunoblot after SDS-PAGE of extracts made without DTT; total seedling protein extracted in the presence of NEM to inhibit deSUMOylation; anti-ICE1; both bands absent in ice1-2; monomer (50kD) only with DTT (5 mM) and without NEM.

B1: INDUCER OF CBF EXPRESSION 1 (ICE1) (natural protein, UniProt Q9LSE2 1-494, looked up)
chain: MGLDGNNGGGVWLNGGGGEREENEEGSWGRNQEDGSSQFKPMLEGDWFSSNQPHPQDLQMLQNQPDFRYFGGFPFNPNDNLLLQHSIDSSSSCSPSQAFSLDPSQQNQFLSTNNNKGCLLNVPSSANPFDNAFEFGSESGFLNQIHAPISMGFGSLTQLGNRDLSSVPDFLSARSLLAPESNNNNTMLCGGFTAPLELEGFGSPANGGFVGNRAKVLKPLEVLASSGAQPTLFQKRAAMRQSSGSKMGNSESSGMRRFSDDGDMDETGIEVSGLNYESDEINESGKAAESVQIGGGGKGKKKGMPAKNLMAERRRRKKLNDRLYMLRSVVPKISKMDRASILGDAIDYLKELLQRINDLHNELESTPPGSLPPTSSSFHPLTPTPQTLSCRVKEELCPSSLPSPKGQQARVEVRLREGRAVNIHMFCGRRPGLLLATMKALDNLGLDVQQAVISCFNGFALDVFRAEQCQEGQEILPDQIKAVLFDTAGYAGMI
notes: Two bands were seen, a non-modified (100kD) and a modified (130kD) dimer; source: endogenous, total protein extract of liquid grown Col-0 seedlings
In general, stoichiometry N refers to the number of molecules, sites or subunits per partner or assembly. As for B1, the “stoichiometry N” value was 2.

These data come from publication doi:10.1101/504373, “Pyrophosphate modulates stress responses via SUMOylation” (bioRxiv, 2018).
